These results are taken from paper PMC7603204.

Numbering of substitutions follows the chain as printed. Names and notes keep the numbering of the source.

B1: E. coli AlaRS (Escherichia coli K-12; C666A/R561C) (protein)
chain: SKSTAEIRQAFLDFFHSKGHQVVASSSLVPHNDPTLLFTNAGMNQFKDVFLGLDKRNYSRATTSQRCVRAGGKHNDLENVGYTARHHTFFEMLGNFSFGDYFKHDAIQFAWELLTSEKWFALPKERLWVTVYESDDEAYEIWEKEVGIPRERIIRIGDNKGAPYASDNFWQMGDTGPCGPCTEIFYDHGDHIWGGPPGSPEEDGDRYIEIWNIVFMQFNRQADGTMEPLPKPSVDTGMGLERIAAVLQHVNSNYDIDLFRTLIQAVAKVTGATDLSNKSLRVIADHIRSCAFLIADGVMPSNENRGYVLRRIIRRAVRHGNMLGAKETFFYKLVGPLIDVMGSAGEDLKRQQAQVEQVLKTEEEQFARTLERGLALLDEELAKLSGDTLDGETAFRLYDTYGFPVDLTADVCRERNIKVDEAGFEAAMEEQRRRAREASGFGADYNAMIRVDSASEFKGYDHLELNGKVTALFVDGKAVDAINAGQEAVVVLDQTPFYAESGGQVGDKGELKGANFSFAVEDTQKYGQAIGHIGKLAAGSLKVGDAVQADVDEARRARICLNHSATHLMHAALRQVLGTHVSQKGSLVNDKVLRFDFSHNEAMKPEEIRAVEDLVNTQIRRNLPIETNIMDLEAAKAKGAMALFGEKYDERVRVLSMGDFSTELAGGTHASRTGDIGLFRIISESGTAAGVRRIEAVTGEGAIATVHADSDRLSEVAHLLKGDSNNLADKVRSVLERTRQLEKELQQLKEQAAAQESANLSSKAIDVNGVKLLVSELSGVEPKMLRTMVDDLKNQLGSTIIVLATVVEGKVSLIAGVSKDVTDRVKAGELIGMVAQQVGGKGGGRPDMAQAGGTDAAALPAALASVKGWVSAKLQ
B2: E. coli AlaRS (Escherichia coli K-12) (protein)
chain: B1 chain with C560R, A665C
B3: E. coli AlaRS (Escherichia coli K-12; R561C) (protein)
chain: B1 chain with A665C
B4: E. coli AlaRS (Escherichia coli K-12; C666A/D551Y) (protein)
chain: B1 chain with D550Y, C560R
B5: E. coli AlaRS (Escherichia coli K-12; C666A) (protein)
chain: B1 chain with C560R
B6: E. coli AlaRS (Escherichia coli K-12; R561S) (protein)
chain: B1 chain with C560S, A665C
B7: E. coli AlaRS (Escherichia coli K-12; C666A/R561S) (protein)
chain: B1 chain with C560S
B8: E. coli AlaRS (Escherichia coli K-12; D551Y) (protein)
chain: B1 chain with D550Y, C560R, A665C

Substrate in the data set: C[C@H](N)C(=O)O
The data set is described as follows: purified protein. As to conditions: 2 mM ATP, 2 mM PPi, 10 mM MgCl2, 30 mM KCl, 2 mM NaF, pH 7.2, 37 °C, amino acid activation.
B1: the Km – broadly, the concentration of substrate that gives half-maximal velocity – is recorded as 190 ± 30 µM; the kcat (as a rule, the maximal rate divided by the concentration of active sites) came out at 13.7 s⁻¹; the kcat/Km (as a rule, the turnover number divided by the Michaelis constant) was found to be 71500 M⁻¹ s⁻¹.

Consider B2, for which the Km was found to be 320 ± 150 µM, the kcat came out at 20.8 s⁻¹ and the kcat/Km is 65200 M⁻¹ s⁻¹.

Consider B3, for which the Km came out at 203 ± 68 µM, the kcat turned out to be 21.8 s⁻¹ and the kcat/Km is 107000 M⁻¹ s⁻¹.

B4: the Km is on record as 217 ± 100 µM, the kcat was 18.3 s⁻¹ and the kcat/Km was 84300 M⁻¹ s⁻¹.

As for B5, the Km is on record as 263 ± 115 µM, the kcat amounted to 16.8 s⁻¹ and the kcat/Km is 63800 M⁻¹ s⁻¹.

Take B6: the Km is listed as 180 ± 15 µM, the kcat came to 20.3 s⁻¹ and the kcat/Km turned out to be 112000 M⁻¹ s⁻¹.

Turning to B7, the Km amounted to 177 ± 37 µM, the kcat is 13.2 s⁻¹ and the kcat/Km came to 74300 M⁻¹ s⁻¹.

As for B8, the Km was found to be 260 ± 76 µM, the turnover number (kcat) was found to be 11.9 s⁻¹ and the kcat/Km worked out at 46000 M⁻¹ s⁻¹.
